Assay results taken from US20110183902A1.

Biological target: mouse GCG-R (in pancreatic islets of mice) (mouse) (UniProt Q61606)
Assay: cell-based or functional assay

Sequence of mouse GCG-R (in pancreatic islets of mice) (mouse) (Q61606 27-485): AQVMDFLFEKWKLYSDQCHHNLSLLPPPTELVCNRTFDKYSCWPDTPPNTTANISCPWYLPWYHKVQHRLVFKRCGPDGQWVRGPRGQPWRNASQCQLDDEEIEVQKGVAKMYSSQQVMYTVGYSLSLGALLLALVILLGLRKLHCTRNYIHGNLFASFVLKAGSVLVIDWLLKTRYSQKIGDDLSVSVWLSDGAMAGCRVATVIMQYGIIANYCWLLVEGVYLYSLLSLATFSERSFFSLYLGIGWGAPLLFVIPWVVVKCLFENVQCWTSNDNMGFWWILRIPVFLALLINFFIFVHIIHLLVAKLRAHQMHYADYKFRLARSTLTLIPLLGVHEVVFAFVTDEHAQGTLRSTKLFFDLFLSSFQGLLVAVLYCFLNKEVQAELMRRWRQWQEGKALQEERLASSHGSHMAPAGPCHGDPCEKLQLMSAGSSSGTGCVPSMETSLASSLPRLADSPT

native OXM peptide (species not stated, Example 11)
fold-increase in fractional GSIS, GCG-R-/- islets relative to WT: 32 % reduction
